Data reported in patent publication US20220195057A1 (LANOVA MEDICINES, published 2022).

How the values were obtained:
[1] = molecular target: human chemokine (C-C motif) receptor 8 (CCR8) protein (human) (UniProt P51685); test: flow cytometry, high-CCR8-expressing U2OS cells
[2] = molecular target: human chemokine (C-C motif) receptor 8 (CCR8) protein (human) (UniProt P51685); test: flow cytometry, low-CCR8-expressing Jurkat cells
[3] = molecular target: T1, human chemokine (C-C motif) receptor 8 (CCR8) protein (human, UniProt P51685 1-355); test: cell-based or functional assay
[4] = molecular target: T1, human chemokine (C-C motif) receptor 8 …; test: cell binding, CCR8-expressing U2OS cells, curve fit; design: LogEC50: unit not given here
[5] = molecular target: T1, human chemokine (C-C motif) receptor 8 …; test: cell binding, CCR8-expressing CHO-K1 cells, curve fit; design: LogEC50: unit not given here
[6] = molecular target: T1, human chemokine (C-C motif) receptor 8 …; test: cell binding, CCR8-expressing U2OS cells, curve fit; design: LogEC50: unit not given here; remark: listed apart in the source
[7] = molecular target: T1, human chemokine (C-C motif) receptor 8 …; test: cell binding, CCR8-expressing CHO-K1 cells, curve fit; design: LogEC50: unit not given here; remark: listed apart in the source

isotype control (antibody)
Max (MFI) [1]: 215 MFI | Max (MFI) [2]: 134 MFI

B1: LM-108-vc-MMAE (other)
VH: EVQLVESGGGLVQPGGSLKLSCAASGFTFNTYAMNWVRQASGKGLEWVARIRSKANNYATYYADSVKDRFTISRDDSKNTLYLQMNNLKTEDTAVYYCVRDRSRGEDYAMDYWGQGTLVTVSS
VL: DIVMTQSPLSLPVTPGEPASISCRSSKSLLHSNANTYLYWFLQKPGQSPQLLIYRMSNLASGVPDRFSGSGSGTAFTLKISRVEAEDVGVYYCMQHLEYPFTFGQGTKLEIK
modifications: vc-MMAE (monomethyl auristatin E) conjugated to the antibody; site and drug number not stated
cytotoxicity IC50 (Cell-Titer-Glo viability, 96 hours) [3]: 0.528 nM

B2: 137-H2L2 (antibody, V domains shown)
VH: EVQLVESGGGLVQPGGSLKLSCAASGFTFNTYAMNWVRQASGKGLEWVGRIRSKANNYATYYADSVKDRFTISRDDSKNTAYLQMNNLKTEDTAVYYCVRDRSRGEDYAMDYWGQGTLVTVSS
VL: DIVMTQSPLSLPVTPGEPASISCRSSKSLLHSNANTYLYWFLQKPGQSPQLLIYRMSNLASGVPDRFSGSGSGTAFTLKISRVEAEDVGVYYCMQHLEYPFTFGQGTKLEIK
notes: Humanized 137D1H10
Bottom [4]: 915 | LogEC50 [4]: -0.842 | Span [4]: 25300 | Top [4]: 26300 | Bottom [5]: 2550 | LogEC50 [5]: -0.789 | Span [5]: 26800 | Top [5]: 29300

B3: 88-H2L2 (antibody, V domains shown)
VH: EVQLVESGGGLVQPGGSLKLSCAASGFTFNPNAMNWVRQASGKGLEWVGRIRSKSNNYATYYADSVKDRFTISRDDSKNTAYLQMNNLKTEDTAVYYCVRGKDDGYRHYAMDYWGQGTTVTVSS
VL: DIVMTQSPLSLPVTPGEPASISCRSSKSLLHSNANTYLYWFLQKPGQSPQLLIYRMSNLASGVPDRFSGSGSGTAFTLKISRVEAEDVGVYYCMQHLEYPFTFGGGTKVEIK
notes: Humanized 88D2C6
Bottom [6]: 2760 | LogEC50 [6]: -0.724 | Span [6]: 25600 | Top [6]: 28300 | Bottom [7]: 2490 | LogEC50 [7]: -0.639 | Span [7]: 30300 | Top [7]: 32800

B4: 137-xi (antibody, V domains shown)
VH: EVQLVESGGGLVQPKGSLKLSCTASGFTFNTYAMNWVRQAPGKGLEWVARIRSKANNYATYYADSVKDRFTISRDDSQRILYLQMNNLKAEDTAMYYCVRDRSRGEDYAMDYWGQGTSVTVSS
VL: DIVMTQAAPSVPVTPGESVSISCRSSKSLLHSNGNTYLYWFLQRPGQSPQLLIYRMSNLASGVPDRFSGSGSGTAFTLRISRVEAEDVGVYYCMQHLEYPFTFGAGTKLELK
notes: also called 137D1H10; chimeric 137D1H10
Bottom [4]: 2170 | LogEC50 [4]: -0.605 | Span [4]: 31300 | Top [4]: 33400 | Bottom [5]: 3030 | LogEC50 [5]: -0.779 | Span [5]: 31900 | Top [5]: 34900

B5: 88-H3L3 (antibody, V domains shown)
VH: EVQLVESGGGLVQPGGSLKLSCAASGFTFNPNAMNWVRQASGKGLEWVARIRSKSNNYATYYADSVKDRFTISRDDSKNTLYLQMNNLKTEDTAVYYCVRGKDDGYRHYAMDYWGQGTTVTVSS
VL: DIVMTQAPLSLPVTPGEPVSISCRSSKSLLHSNANTYLYWFLQKPGQSPQLLIYRMSNLASGVPDRFSGSGSGTAFTLKISRVEAEDVGVYYCMQHLEYPFTFGGGTKLEIK
notes: Humanized 88D2C6
Bottom [6]: 1620 | LogEC50 [6]: -0.629 | Span [6]: 25800 | Top [6]: 27400 | Bottom [7]: 3470 | LogEC50 [7]: -0.583 | Span [7]: 28700 | Top [7]: 32200

B6: 88-H1L3 (antibody, V domains shown)
VH: EVQLVESGGGLVQPGGSLKLSCAASGFTFNPNAMNWVRQASGKGLEWVGRIRSKSNNYATYYADSVKDRFTISRDDSKNTAYLQMNSLKTEDTAVYYCTRGKDDGYRHYAMDYWGQGTTVTVSS
VL: DIVMTQAPLSLPVTPGEPVSISCRSSKSLLHSNANTYLYWFLQKPGQSPQLLIYRMSNLASGVPDRFSGSGSGTAFTLKISRVEAEDVGVYYCMQHLEYPFTFGGGTKLEIK
notes: Humanized 88D2C6
Bottom [6]: 1540 | LogEC50 [6]: -0.58 | Span [6]: 26100 | Top [6]: 27600 | Bottom [7]: 2140 | LogEC50 [7]: -0.519 | Span [7]: 29800 | Top [7]: 31900

B7: 88-H3L2 (antibody, V domains shown)
VH: EVQLVESGGGLVQPGGSLKLSCAASGFTFNPNAMNWVRQASGKGLEWVARIRSKSNNYATYYADSVKDRFTISRDDSKNTLYLQMNNLKTEDTAVYYCVRGKDDGYRHYAMDYWGQGTTVTVSS
VL: DIVMTQSPLSLPVTPGEPASISCRSSKSLLHSNANTYLYWFLQKPGQSPQLLIYRMSNLASGVPDRFSGSGSGTAFTLKISRVEAEDVGVYYCMQHLEYPFTFGGGTKVEIK
notes: Humanized 88D2C6
Bottom [6]: 2830 | LogEC50 [6]: -0.684 | Span [6]: 24600 | Top [6]: 27400 | Bottom [7]: 3940 | LogEC50 [7]: -0.686 | Span [7]: 28600 | Top [7]: 32500

B8: 88-H2L3 (antibody, V domains shown)
VH: EVQLVESGGGLVQPGGSLKLSCAASGFTFNPNAMNWVRQASGKGLEWVGRIRSKSNNYATYYADSVKDRFTISRDDSKNTAYLQMNNLKTEDTAVYYCVRGKDDGYRHYAMDYWGQGTTVTVSS
VL: DIVMTQAPLSLPVTPGEPVSISCRSSKSLLHSNANTYLYWFLQKPGQSPQLLIYRMSNLASGVPDRFSGSGSGTAFTLKISRVEAEDVGVYYCMQHLEYPFTFGGGTKLEIK
notes: Humanized 88D2C6
Bottom [6]: 1530 | LogEC50 [6]: -0.512 | Span [6]: 24200 | Top [6]: 25800 | Bottom [7]: 2280 | LogEC50 [7]: -0.546 | Span [7]: 29300 | Top [7]: 31600

B9: 137-H3L3 (antibody, V domains shown)
VH: EVQLVESGGGLVQPGGSLKLSCAASGFTFNTYAMNWVRQASGKGLEWVARIRSKANNYATYYADSVKDRFTISRDDSKNTLYLQMNNLKTEDTAVYYCVRDRSRGEDYAMDYWGQGTLVTVSS
VL: DIVMTQSPLSLPVTPGEPVSISCRSSKSLLHSNANTYLYWFLQKPGQSPQLLIYRMSNLASGVPDRFSGSGSGTAFTLKISRVEAEDVGVYYCMQHLEYPFTFGQGTKLEIK
notes: Humanized 137D1H10
Bottom [4]: 2100 | LogEC50 [4]: -0.717 | Span [4]: 29800 | Top [4]: 31900 | Bottom [5]: 3820 | LogEC50 [5]: -0.754 | Span [5]: 29600 | Top [5]: 33400

B10: 88-H1L2 (antibody, V domains shown)
VH: EVQLVESGGGLVQPGGSLKLSCAASGFTFNPNAMNWVRQASGKGLEWVGRIRSKSNNYATYYADSVKDRFTISRDDSKNTAYLQMNSLKTEDTAVYYCTRGKDDGYRHYAMDYWGQGTTVTVSS
VL: DIVMTQSPLSLPVTPGEPASISCRSSKSLLHSNANTYLYWFLQKPGQSPQLLIYRMSNLASGVPDRFSGSGSGTAFTLKISRVEAEDVGVYYCMQHLEYPFTFGGGTKVEIK
notes: Humanized 88D2C6
Bottom [6]: 2110 | LogEC50 [6]: -0.678 | Span [6]: 26800 | Top [6]: 28900 | Bottom [7]: 2670 | LogEC50 [7]: -0.751 | Span [7]: 30100 | Top [7]: 32800

B11: 137-H2L3 (antibody, V domains shown)
VH: EVQLVESGGGLVQPGGSLKLSCAASGFTFNTYAMNWVRQASGKGLEWVGRIRSKANNYATYYADSVKDRFTISRDDSKNTAYLQMNNLKTEDTAVYYCVRDRSRGEDYAMDYWGQGTLVTVSS
VL: DIVMTQSPLSLPVTPGEPVSISCRSSKSLLHSNANTYLYWFLQKPGQSPQLLIYRMSNLASGVPDRFSGSGSGTAFTLKISRVEAEDVGVYYCMQHLEYPFTFGQGTKLEIK
notes: Humanized 137D1H10
Bottom [4]: 1320 | LogEC50 [4]: -0.484 | Span [4]: 25900 | Top [4]: 27300 | Bottom [5]: 2240 | LogEC50 [5]: -0.505 | Span [5]: 27900 | Top [5]: 30200

B12: 88D2C6 (fused to human IgG1 constant regions, with ADCC-activating mutations in Fc) (antibody, V domains shown)
VH: EVQLVETGGGLVQPKGSLKLSCAASGFTFNPNAMNWVRQAPGKGLEWVARIRSKSNNYATYYADSVKDRFTISRDDSQSMLYLQMNNLKTEDTAMYYCVRGKDDGYRHYAMDYWGQGTSVTVSS
VL: DIVMTQAAPSVPVTPGESVSISCRSSKSLLHSNGNTYLYWFLQRPGQSPQLLIYRMSNLASGVPDRFSGSGSGTAFTLRISRVEAEDVGVYYCMQHLEYPFTFGAGTKLELK
ADCC EC50 (CCR8-overexpressing CHO K1 cells) [3]: 0.0174 nM

B13: 88-xi (antibody, V domains shown)
VH: EVQLVETGGGLVQPKGSLKLSCAASGFTFNPNAMNWVRQAPGKGLEWVARIRSKSNNYATYYADSVKDRFTISRDDSQSMLYLQMNNLKTEDTAMYYCVRGKDDGYRHYAMDYWGQGTSVTVSS
VL: DIVMTQAAPSVPVTPGESVSISCRSSKSLLHSNGNTYLYWFLQRPGQSPQLLIYRMSNLASGVPDRFSGSGSGTAFTLRISRVEAEDVGVYYCMQHLEYPFTFGAGTKLELK
notes: also called 88D2C6; chimeric 88D2C6
Bottom [6]: 1030 | LogEC50 [6]: -0.692 | Span [6]: 28600 | Top [6]: 29700 | Bottom [7]: 3630 | LogEC50 [7]: -0.655 | Span [7]: 30300 | Top [7]: 33900
